Data taken from the Human Domainome abundance scans (Beltran et al. 2025).
± gives the uncertainty stated by the source.

B1: Homeobox protein cut-like 1, residues 941 to 1008; numbered along this chain, P39880 (parent)
chain: QEVDTIELTRQVKEKLAKNGICQRIFGEKVLGLSQGSVSDMLSRPKPWSKLTQKGREPFIRMQLWLNG

Variants of: B1
Experiment: abundance fitness (aPCA) (normalised: wild type 0, dead -1); higher = more abundant; growth selection in yeast, the domain comes from the species named
Details: Homo sapiens

QEVRTIELTRQVKEKLAKNGICQRIFGEKVLGLSQGSVSDMLSRPKPWSKLTQKGREPFIRMQLWLNG [D4R] and QEVSTIELTRQVKEKLAKNGICQRIFGEKVLGLSQGSVSDMLSRPKPWSKLTQKGREPFIRMQLWLNG [D4S] are within error of each other in abundance fitness: -0.368 ± 0.06 for the first, -0.261 ± 0.05 for the second.

Going from QEVTTIELTRQVKEKLAKNGICQRIFGEKVLGLSQGSVSDMLSRPKPWSKLTQKGREPFIRMQLWLNG [D4T] to QEVVTIELTRQVKEKLAKNGICQRIFGEKVLGLSQGSVSDMLSRPKPWSKLTQKGREPFIRMQLWLNG [D4V], the abundance fitness falls from -0.25 ± 0.057 to -0.581 ± 0.052.

QEVWTIELTRQVKEKLAKNGICQRIFGEKVLGLSQGSVSDMLSRPKPWSKLTQKGREPFIRMQLWLNG [D4W] and QEVYTIELTRQVKEKLAKNGICQRIFGEKVLGLSQGSVSDMLSRPKPWSKLTQKGREPFIRMQLWLNG [D4Y] are within error of each other in abundance fitness: -0.552 ± 0.078 for the first, -0.43 ± 0.074 for the second.

QEVDAIELTRQVKEKLAKNGICQRIFGEKVLGLSQGSVSDMLSRPKPWSKLTQKGREPFIRMQLWLNG [T5A] and QEVDCIELTRQVKEKLAKNGICQRIFGEKVLGLSQGSVSDMLSRPKPWSKLTQKGREPFIRMQLWLNG [T5C] are within error of each other in abundance fitness: -0.253 ± 0.048 for the first, -0.233 ± 0.088 for the second.

Compared with QEVDDIELTRQVKEKLAKNGICQRIFGEKVLGLSQGSVSDMLSRPKPWSKLTQKGREPFIRMQLWLNG [T5D], QEVDEIELTRQVKEKLAKNGICQRIFGEKVLGLSQGSVSDMLSRPKPWSKLTQKGREPFIRMQLWLNG [T5E] is higher in abundance fitness: -0.412 ± 0.092 for the first, -0.204 ± 0.066 for the second.

QEVDFIELTRQVKEKLAKNGICQRIFGEKVLGLSQGSVSDMLSRPKPWSKLTQKGREPFIRMQLWLNG [T5F] and QEVDGIELTRQVKEKLAKNGICQRIFGEKVLGLSQGSVSDMLSRPKPWSKLTQKGREPFIRMQLWLNG [T5G] are within error of each other in abundance fitness: -0.235 ± 0.11 for the first, -0.329 ± 0.05 for the second.

QEVDHIELTRQVKEKLAKNGICQRIFGEKVLGLSQGSVSDMLSRPKPWSKLTQKGREPFIRMQLWLNG [T5H] and QEVDIIELTRQVKEKLAKNGICQRIFGEKVLGLSQGSVSDMLSRPKPWSKLTQKGREPFIRMQLWLNG [T5I] are within error of each other in abundance fitness: -0.145 ± 0.14 for the first, -0.177 ± 0.11 for the second.

QEVDKIELTRQVKEKLAKNGICQRIFGEKVLGLSQGSVSDMLSRPKPWSKLTQKGREPFIRMQLWLNG [T5K] and QEVDLIELTRQVKEKLAKNGICQRIFGEKVLGLSQGSVSDMLSRPKPWSKLTQKGREPFIRMQLWLNG [T5L] are within error of each other in abundance fitness: -0.121 ± 0.066 for the first, -0.135 ± 0.045 for the second.

Compared with QEVDMIELTRQVKEKLAKNGICQRIFGEKVLGLSQGSVSDMLSRPKPWSKLTQKGREPFIRMQLWLNG [T5M], QEVDNIELTRQVKEKLAKNGICQRIFGEKVLGLSQGSVSDMLSRPKPWSKLTQKGREPFIRMQLWLNG [T5N] is lower in abundance fitness: -0.02 ± 0.067 for the first, -0.223 ± 0.13 for the second.

First: QEVDPIELTRQVKEKLAKNGICQRIFGEKVLGLSQGSVSDMLSRPKPWSKLTQKGREPFIRMQLWLNG [T5P]
Second: QEVDQIELTRQVKEKLAKNGICQRIFGEKVLGLSQGSVSDMLSRPKPWSKLTQKGREPFIRMQLWLNG [T5Q]
The abundance fitness of the first is lower: -0.354 ± 0.066 for the first, -0.086 ± 0.065 for the second.

QEVDRIELTRQVKEKLAKNGICQRIFGEKVLGLSQGSVSDMLSRPKPWSKLTQKGREPFIRMQLWLNG [T5R] and QEVDSIELTRQVKEKLAKNGICQRIFGEKVLGLSQGSVSDMLSRPKPWSKLTQKGREPFIRMQLWLNG [T5S] are within error of each other in abundance fitness: -0.157 ± 0.046 for the first, -0.177 ± 0.056 for the second.

First: QEVDVIELTRQVKEKLAKNGICQRIFGEKVLGLSQGSVSDMLSRPKPWSKLTQKGREPFIRMQLWLNG [T5V]
Second: QEVDWIELTRQVKEKLAKNGICQRIFGEKVLGLSQGSVSDMLSRPKPWSKLTQKGREPFIRMQLWLNG [T5W]
The abundance fitness of the first is lower: -0.383 ± 0.049 for the first, -0.176 ± 0.06 for the second.

Going from QEVDYIELTRQVKEKLAKNGICQRIFGEKVLGLSQGSVSDMLSRPKPWSKLTQKGREPFIRMQLWLNG [T5Y] to QEVDTAELTRQVKEKLAKNGICQRIFGEKVLGLSQGSVSDMLSRPKPWSKLTQKGREPFIRMQLWLNG [I6A], the abundance fitness rises from -0.192 ± 0.12 to 0.076 ± 0.062.

QEVDTCELTRQVKEKLAKNGICQRIFGEKVLGLSQGSVSDMLSRPKPWSKLTQKGREPFIRMQLWLNG [I6C] and QEVDTDELTRQVKEKLAKNGICQRIFGEKVLGLSQGSVSDMLSRPKPWSKLTQKGREPFIRMQLWLNG [I6D] are within error of each other in abundance fitness: -0.091 ± 0.08 for the first, -0.268 ± 0.13 for the second.

QEVDTFELTRQVKEKLAKNGICQRIFGEKVLGLSQGSVSDMLSRPKPWSKLTQKGREPFIRMQLWLNG [I6F] and QEVDTGELTRQVKEKLAKNGICQRIFGEKVLGLSQGSVSDMLSRPKPWSKLTQKGREPFIRMQLWLNG [I6G] are within error of each other in abundance fitness: -0.081 ± 0.073 for the first, -0.049 ± 0.063 for the second.

QEVDTHELTRQVKEKLAKNGICQRIFGEKVLGLSQGSVSDMLSRPKPWSKLTQKGREPFIRMQLWLNG [I6H] and QEVDTKELTRQVKEKLAKNGICQRIFGEKVLGLSQGSVSDMLSRPKPWSKLTQKGREPFIRMQLWLNG [I6K] are within error of each other in abundance fitness: -0.005 ± 0.095 for the first, 0.089 ± 0.068 for the second.

First: QEVDTLELTRQVKEKLAKNGICQRIFGEKVLGLSQGSVSDMLSRPKPWSKLTQKGREPFIRMQLWLNG [I6L]
Second: QEVDTMELTRQVKEKLAKNGICQRIFGEKVLGLSQGSVSDMLSRPKPWSKLTQKGREPFIRMQLWLNG [I6M]
The abundance fitness of the first is lower: -0.161 ± 0.045 for the first, 0.06 ± 0.059 for the second.

QEVDTNELTRQVKEKLAKNGICQRIFGEKVLGLSQGSVSDMLSRPKPWSKLTQKGREPFIRMQLWLNG [I6N] and QEVDTRELTRQVKEKLAKNGICQRIFGEKVLGLSQGSVSDMLSRPKPWSKLTQKGREPFIRMQLWLNG [I6R] are within error of each other in abundance fitness: -0.09 ± 0.1 for the first, -0.053 ± 0.045 for the second.

First: QEVDTSELTRQVKEKLAKNGICQRIFGEKVLGLSQGSVSDMLSRPKPWSKLTQKGREPFIRMQLWLNG [I6S]
Second: QEVDTTELTRQVKEKLAKNGICQRIFGEKVLGLSQGSVSDMLSRPKPWSKLTQKGREPFIRMQLWLNG [I6T]
The abundance fitness of the first is lower: -0.259 ± 0.053 for the first, -0.029 ± 0.062 for the second.

QEVDTVELTRQVKEKLAKNGICQRIFGEKVLGLSQGSVSDMLSRPKPWSKLTQKGREPFIRMQLWLNG [I6V] showed an abundance fitness of -0.046 ± 0.061.
